Data as given in patent US20160002331A1.
pKd: −log10 of the molar value. Where two headings read alike, the source gives them in different places. One block for each substance: values may come before it.

Experiments:
[1] = biological target: Notch1 receptor with a 12 amino acid insertion at position 1595 (CCRF-CEM cells) (UniProt P46531); assay: cell-based or functional assay
[2] = biological target: full-length mouse Notch1 expressed on the cell surface of U-2 OS cells (mouse) (UniProt Q01705); assay: cell-based or functional assay
[3] = biological target: Notch1 receptor with a 17 amino acid insertion at position 1740 (Jurkat cells) (UniProt P46531); assay: cell-based or functional assay
Sequence of Notch1 receptor with a 17 amino acid insertion at position 1740 (Jurkat cells) (P46531 19-2555): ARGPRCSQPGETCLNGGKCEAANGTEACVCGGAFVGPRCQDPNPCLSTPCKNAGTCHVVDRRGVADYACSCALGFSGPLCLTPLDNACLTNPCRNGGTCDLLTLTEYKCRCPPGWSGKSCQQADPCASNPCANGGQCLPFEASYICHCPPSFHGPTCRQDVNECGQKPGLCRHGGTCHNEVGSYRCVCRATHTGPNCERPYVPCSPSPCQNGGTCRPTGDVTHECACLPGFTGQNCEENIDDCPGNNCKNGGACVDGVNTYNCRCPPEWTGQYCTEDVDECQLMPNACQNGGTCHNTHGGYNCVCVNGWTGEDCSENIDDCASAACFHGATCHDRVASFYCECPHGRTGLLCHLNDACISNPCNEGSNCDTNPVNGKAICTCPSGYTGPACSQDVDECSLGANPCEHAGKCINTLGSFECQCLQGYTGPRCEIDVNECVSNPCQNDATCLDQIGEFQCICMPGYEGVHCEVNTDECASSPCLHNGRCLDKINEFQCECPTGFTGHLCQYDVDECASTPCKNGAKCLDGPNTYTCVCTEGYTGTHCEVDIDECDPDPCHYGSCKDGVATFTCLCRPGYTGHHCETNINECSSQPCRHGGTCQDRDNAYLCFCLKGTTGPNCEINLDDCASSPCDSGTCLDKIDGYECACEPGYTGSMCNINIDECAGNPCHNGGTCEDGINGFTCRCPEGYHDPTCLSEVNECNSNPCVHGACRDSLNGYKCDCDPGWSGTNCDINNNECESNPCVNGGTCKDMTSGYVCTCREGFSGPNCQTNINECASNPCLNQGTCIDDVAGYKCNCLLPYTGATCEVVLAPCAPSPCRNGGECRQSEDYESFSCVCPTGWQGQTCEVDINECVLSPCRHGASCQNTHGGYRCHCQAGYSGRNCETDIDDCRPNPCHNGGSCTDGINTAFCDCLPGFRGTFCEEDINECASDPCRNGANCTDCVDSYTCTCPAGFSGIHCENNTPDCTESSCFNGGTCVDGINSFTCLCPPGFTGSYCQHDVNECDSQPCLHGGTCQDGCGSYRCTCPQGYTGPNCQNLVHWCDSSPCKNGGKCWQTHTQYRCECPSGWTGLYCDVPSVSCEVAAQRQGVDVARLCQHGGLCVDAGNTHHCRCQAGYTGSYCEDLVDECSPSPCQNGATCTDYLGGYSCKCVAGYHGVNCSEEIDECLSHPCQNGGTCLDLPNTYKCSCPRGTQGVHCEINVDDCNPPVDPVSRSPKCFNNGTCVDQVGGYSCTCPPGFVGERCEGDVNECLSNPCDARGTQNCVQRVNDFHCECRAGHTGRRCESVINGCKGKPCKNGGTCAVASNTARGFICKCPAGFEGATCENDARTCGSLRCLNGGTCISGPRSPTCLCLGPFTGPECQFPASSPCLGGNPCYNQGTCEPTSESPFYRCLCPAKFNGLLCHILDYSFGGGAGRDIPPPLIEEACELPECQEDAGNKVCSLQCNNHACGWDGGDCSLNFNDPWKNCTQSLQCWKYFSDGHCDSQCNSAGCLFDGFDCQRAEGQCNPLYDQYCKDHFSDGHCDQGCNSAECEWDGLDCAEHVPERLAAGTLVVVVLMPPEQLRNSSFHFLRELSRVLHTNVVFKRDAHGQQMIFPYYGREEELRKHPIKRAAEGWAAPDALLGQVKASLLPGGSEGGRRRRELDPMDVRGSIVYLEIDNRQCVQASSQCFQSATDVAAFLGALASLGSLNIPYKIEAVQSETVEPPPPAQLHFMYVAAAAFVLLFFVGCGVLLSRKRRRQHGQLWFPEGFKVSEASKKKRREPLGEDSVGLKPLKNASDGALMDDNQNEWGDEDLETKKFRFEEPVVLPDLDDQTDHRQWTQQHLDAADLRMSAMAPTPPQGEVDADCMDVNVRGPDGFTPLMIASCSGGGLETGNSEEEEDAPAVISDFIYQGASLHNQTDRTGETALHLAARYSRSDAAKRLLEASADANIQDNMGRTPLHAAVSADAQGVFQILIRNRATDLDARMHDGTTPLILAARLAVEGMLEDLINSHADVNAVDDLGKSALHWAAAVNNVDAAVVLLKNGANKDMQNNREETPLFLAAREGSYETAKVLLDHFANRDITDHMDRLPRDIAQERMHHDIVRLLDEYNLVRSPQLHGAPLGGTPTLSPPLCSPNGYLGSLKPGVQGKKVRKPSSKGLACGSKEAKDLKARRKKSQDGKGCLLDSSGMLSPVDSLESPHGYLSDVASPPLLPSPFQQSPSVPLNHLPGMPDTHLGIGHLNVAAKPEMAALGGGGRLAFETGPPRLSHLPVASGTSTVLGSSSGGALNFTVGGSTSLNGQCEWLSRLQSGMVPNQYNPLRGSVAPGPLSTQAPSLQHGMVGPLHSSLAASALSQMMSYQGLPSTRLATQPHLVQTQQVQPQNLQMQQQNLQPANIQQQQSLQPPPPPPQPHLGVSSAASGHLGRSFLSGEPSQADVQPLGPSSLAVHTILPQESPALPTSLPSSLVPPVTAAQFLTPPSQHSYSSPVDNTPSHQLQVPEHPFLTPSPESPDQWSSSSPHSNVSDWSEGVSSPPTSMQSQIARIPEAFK

[4] = biological target: Notch1 receptor with L1601P mutation (MOLT-4 cells) (UniProt P46531); assay: cell-based or functional assay
[5] = biological target: Notch1 receptor with L1594P/D1610V mutations (DND-41 cells) (UniProt P46531); assay: cell-based or functional assay
Sequence of Notch1 receptor with L1594P/D1610V mutations (DND-41 cells) (P46531 19-2555, stated change not applied): as the sequence (P46531 19-2555) above

[6] = biological target: full-length human Notch1 expressed on the cell surface (human) (UniProt P46531); assay: cell-based or functional assay
[7] = biological target: Notch1 receptor with L1594P mutation (ALL-SIL cells) (UniProt P46531); assay: cell-based or functional assay
[8] = biological target: Notch1 receptor with L1575P mutation (HPB-ALL cells) (UniProt P46531); assay: cell-based or functional assay
Sequence of Notch1 receptor with L1575P mutation (HPB-ALL cells) (P46531 19-2555 L1593P limits assumed): as the sequence (P46531 19-2555) above, with L1575P counted along it

[9] = biological target: full-length mouse Notch1 expressed on the cell surface of U-2 OS cells (mouse) (UniProt Q01705); assay: cell-based or functional assay; remark: listed apart in the source
[10] = biological target: full-length human Notch1 expressed on the cell surface (human) (UniProt P46531); assay: cell-based or functional assay; remark: listed apart in the source
[11] = biological target: human Notch1 NRR_Avi_His recombinant protein (human) (UniProt P46531); assay: SPR (Biacore T100), antibody captured by anti-human IgG-Fc, NRR_Avi_His as analyte, 1:1 Langmuir model

Sequence of Notch1 receptor with a 12 amino acid insertion at position 1595 (CCRF-CEM cells) (P46531 other isoform, or with tags, fused parts or gaps limits assumed): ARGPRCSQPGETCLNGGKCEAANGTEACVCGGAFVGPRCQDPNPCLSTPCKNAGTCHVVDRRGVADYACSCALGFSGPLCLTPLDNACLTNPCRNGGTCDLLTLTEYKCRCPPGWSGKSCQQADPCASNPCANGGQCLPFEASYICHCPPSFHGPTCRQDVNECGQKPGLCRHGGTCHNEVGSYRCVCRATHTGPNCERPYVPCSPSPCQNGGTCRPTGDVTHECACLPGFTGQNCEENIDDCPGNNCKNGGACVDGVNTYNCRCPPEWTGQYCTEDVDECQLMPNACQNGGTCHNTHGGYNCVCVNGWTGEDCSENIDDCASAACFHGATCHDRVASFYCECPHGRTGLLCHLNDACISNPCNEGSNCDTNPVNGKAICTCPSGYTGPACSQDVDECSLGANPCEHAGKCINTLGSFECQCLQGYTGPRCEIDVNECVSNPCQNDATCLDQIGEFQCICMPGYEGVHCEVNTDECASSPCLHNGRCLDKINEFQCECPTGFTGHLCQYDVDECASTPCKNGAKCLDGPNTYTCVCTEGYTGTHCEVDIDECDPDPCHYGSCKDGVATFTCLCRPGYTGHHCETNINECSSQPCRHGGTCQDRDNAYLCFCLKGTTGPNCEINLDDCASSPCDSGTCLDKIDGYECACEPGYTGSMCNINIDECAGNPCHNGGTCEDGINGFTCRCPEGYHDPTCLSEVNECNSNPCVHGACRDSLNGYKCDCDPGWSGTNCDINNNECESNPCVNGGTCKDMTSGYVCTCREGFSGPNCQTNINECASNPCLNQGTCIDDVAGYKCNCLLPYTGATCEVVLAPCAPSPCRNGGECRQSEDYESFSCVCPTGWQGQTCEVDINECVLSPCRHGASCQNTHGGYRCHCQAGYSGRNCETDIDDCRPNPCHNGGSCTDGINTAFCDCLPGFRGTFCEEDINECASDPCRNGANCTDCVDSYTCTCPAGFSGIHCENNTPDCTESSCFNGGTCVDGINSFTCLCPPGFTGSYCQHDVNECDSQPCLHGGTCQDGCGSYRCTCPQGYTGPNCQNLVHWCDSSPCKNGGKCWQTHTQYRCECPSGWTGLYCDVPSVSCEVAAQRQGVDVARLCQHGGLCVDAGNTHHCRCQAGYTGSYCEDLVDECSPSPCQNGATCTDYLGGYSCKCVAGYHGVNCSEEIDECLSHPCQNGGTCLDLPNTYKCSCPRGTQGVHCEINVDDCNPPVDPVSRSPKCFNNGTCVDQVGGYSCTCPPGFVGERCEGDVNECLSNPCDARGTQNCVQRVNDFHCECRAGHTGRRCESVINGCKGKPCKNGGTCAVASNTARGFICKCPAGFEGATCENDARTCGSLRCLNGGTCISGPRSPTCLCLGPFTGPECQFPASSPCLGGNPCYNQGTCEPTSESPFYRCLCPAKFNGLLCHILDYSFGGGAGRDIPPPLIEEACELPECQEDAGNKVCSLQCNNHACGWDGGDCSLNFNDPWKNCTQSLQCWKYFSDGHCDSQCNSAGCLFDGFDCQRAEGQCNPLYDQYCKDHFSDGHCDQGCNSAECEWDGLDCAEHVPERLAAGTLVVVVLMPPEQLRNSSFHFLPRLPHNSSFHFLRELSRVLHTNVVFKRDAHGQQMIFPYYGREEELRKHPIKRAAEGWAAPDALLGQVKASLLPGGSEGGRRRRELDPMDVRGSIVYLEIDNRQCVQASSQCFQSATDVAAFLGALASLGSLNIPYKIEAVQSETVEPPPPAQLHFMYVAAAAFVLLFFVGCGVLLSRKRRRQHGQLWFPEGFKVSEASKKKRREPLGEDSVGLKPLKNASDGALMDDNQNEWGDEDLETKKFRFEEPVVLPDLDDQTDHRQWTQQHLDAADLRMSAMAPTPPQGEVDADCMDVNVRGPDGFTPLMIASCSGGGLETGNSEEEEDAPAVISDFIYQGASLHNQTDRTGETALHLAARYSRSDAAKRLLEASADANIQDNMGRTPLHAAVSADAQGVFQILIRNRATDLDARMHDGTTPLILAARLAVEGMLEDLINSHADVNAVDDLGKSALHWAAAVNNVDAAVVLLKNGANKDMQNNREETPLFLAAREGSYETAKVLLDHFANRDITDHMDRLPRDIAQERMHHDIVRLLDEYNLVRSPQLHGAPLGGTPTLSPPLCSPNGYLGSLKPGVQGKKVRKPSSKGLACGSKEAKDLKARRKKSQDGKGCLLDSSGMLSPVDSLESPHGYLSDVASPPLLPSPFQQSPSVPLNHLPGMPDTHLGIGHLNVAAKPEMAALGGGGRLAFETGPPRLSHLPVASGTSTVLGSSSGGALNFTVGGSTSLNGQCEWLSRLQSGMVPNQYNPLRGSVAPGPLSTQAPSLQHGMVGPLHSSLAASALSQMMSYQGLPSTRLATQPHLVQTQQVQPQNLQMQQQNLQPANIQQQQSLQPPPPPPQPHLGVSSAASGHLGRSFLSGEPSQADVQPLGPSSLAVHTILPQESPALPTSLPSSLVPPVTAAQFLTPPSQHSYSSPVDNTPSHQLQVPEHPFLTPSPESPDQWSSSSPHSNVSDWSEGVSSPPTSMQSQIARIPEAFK

Normalized Notch1^ICD level, CCRF-CEM cells, 0.001 µg/ml antibody (relative to untreated) [1]: 1.12
Normalized Notch1^ICD level, CCRF-CEM cells, 0.01 µg/ml antibody (relative to untreated) [1]: 1.28
Normalized Notch1^ICD level, CCRF-CEM cells, 0.1 µg/ml antibody (relative to untreated) [1]: 0.424
Normalized Notch1^ICD level, CCRF-CEM cells, 1 µg/ml antibody (relative to untreated) [1]: 0.048
Normalized Notch1^ICD level, CCRF-CEM cells, 10 µg/ml antibody (relative to untreated) [1]: 0.027
IC50, mouse Notch1 reporter gene co-culture assay (DLL4-HEK293) [2]: 0.32 nM
Neutralization activity (murine RGA), % Inhibition (maximal) [2]: 86%
Neutralization activity (murine RGA), IC50 [2]: 0.2 nM
Normalized Notch1^ICD level, Jurkat cells, 0.001 µg/ml antibody (relative to untreated) [3]: 1.2
Normalized Notch1^ICD level, Jurkat cells, 0.01 µg/ml antibody (relative to untreated) [3]: 1.17
Normalized Notch1^ICD level, Jurkat cells, 0.1 µg/ml antibody (relative to untreated) [3]: 0.983
Normalized Notch1^ICD level, Jurkat cells, 1 µg/ml antibody (relative to untreated) [3]: 1.15
Normalized Notch1^ICD level, Jurkat cells, 10 µg/ml antibody (relative to untreated) [3]: 1.59
Normalized Notch1^ICD level, MOLT-4 cells, 0.01 µg/ml antibody (relative to untreated) [4]: 0.962
Normalized Notch1^ICD level, MOLT-4 cells, 0.1 µg/ml antibody (relative to untreated) [4]: 0.644
Normalized Notch1^ICD level, MOLT-4 cells, 10 µg/ml antibody (relative to untreated) [4]: 0.043
Normalized Notch1^ICD level, DND-41 cells, 0.001 µg/ml antibody (relative to untreated) [5]: 0.787
Normalized Notch1^ICD level, DND-41 cells, 0.01 µg/ml antibody (relative to untreated) [5]: 0.84
Normalized Notch1^ICD level, DND-41 cells, 0.1 µg/ml antibody (relative to untreated) [5]: 0.479
Normalized Notch1^ICD level, DND-41 cells, 1 µg/ml antibody (relative to untreated) [5]: 0.199
Normalized Notch1^ICD level, DND-41 cells, 10 µg/ml antibody (relative to untreated) [5]: 0.114
Firefly/Renilla Luminescence, human Notch1 reporter cells + 5 mM EDTA, 0.01 µg/mL antibody (Firefly/Renilla ratio) [6]: 312
Firefly/Renilla Luminescence, human Notch1 reporter cells + 5 mM EDTA, 0.1 µg/mL antibody (Firefly/Renilla ratio) [6]: 172
Firefly/Renilla Luminescence, human Notch1 reporter cells + 5 mM EDTA, 1 µg/mL antibody (Firefly/Renilla ratio) [6]: 89.9
Firefly/Renilla Luminescence, human Notch1 reporter cells + 5 mM EDTA, 10 µg/mL antibody (Firefly/Renilla ratio) [6]: 63.5
Firefly/Renilla Luminescence, human Notch1 reporter cells + 5 mM EDTA, 30 µg/mL antibody (Firefly/Renilla ratio) [6]: 55.2
IC50, Notch1 signaling inhibition co-culture reporter assay [6]: 0.18 nM
IC50, human Notch1 reporter gene co-culture assay (DLL4-HEK293) [6]: 0.31 nM
Maximal Inhibition (%), Notch1 signaling inhibition co-culture reporter assay [6]: 97.7%
Neutralization activity (Human RGA), % Inhibition (maximal) [6]: 100%
Neutralization activity (Human RGA), IC50 [6]: 0.3 nM
Normalized Notch1^ICD level, CCD1076SK fibroblasts on DLL4, 0.001 µg/ml antibody (relative to untreated) [6]: 0.748
Normalized Notch1^ICD level, CCD1076SK fibroblasts on DLL4, 0.01 µg/ml antibody (relative to untreated) [6]: 0.402
Normalized Notch1^ICD level, CCD1076SK fibroblasts on DLL4, 0.1 µg/ml antibody (relative to untreated) [6]: 0.003
Normalized Notch1^ICD level, CCD1076SK fibroblasts on DLL4, 1 µg/ml antibody (relative to untreated) [6]: 0.003
Normalized Notch1^ICD level, CCD1076SK fibroblasts on DLL4, 10 µg/ml antibody (relative to untreated) [6]: 0.006
Normalized Notch1^ICD level, ALL-SIL cells, 0.001 µg/ml antibody (relative to untreated) [7]: 1.56
Normalized Notch1^ICD level, ALL-SIL cells, 0.01 µg/ml antibody (relative to untreated) [7]: 1.31
Normalized Notch1^ICD level, ALL-SIL cells, 0.1 µg/ml antibody (relative to untreated) [7]: 0.068
Normalized Notch1^ICD level, ALL-SIL cells, 1 µg/ml antibody (relative to untreated) [7]: 0.033
Normalized Notch1^ICD level, ALL-SIL cells, 10 µg/ml antibody (relative to untreated) [7]: 0.043
Normalized Notch1^ICD level, HPB-ALL cells, 0.001 µg/ml antibody (relative to untreated) [8]: 0.852
Normalized Notch1^ICD level, HPB-ALL cells, 0.01 µg/ml antibody (relative to untreated) [8]: 1.15
Normalized Notch1^ICD level, HPB-ALL cells, 0.1 µg/ml antibody (relative to untreated) [8]: 0.33
Normalized Notch1^ICD level, HPB-ALL cells, 1 µg/ml antibody (relative to untreated) [8]: 0.038
Normalized Notch1^ICD level, HPB-ALL cells, 10 µg/ml antibody (relative to untreated) [8]: 0.041
Neutralization activity (murine RGA), % Inhibition [9]: 82%
Neutralization activity (murine RGA), IC50 [9]: 0.36 nM
Neutralization activity (Human RGA), % Inhibition [10]: 99.1%
Neutralization activity (Human RGA), IC50 [10]: 0.27 nM
pKd [11]: 8.53
Substance: A2 antibody (Wu, Y. et al., Nature 464:1052-1057, 2010)
IC50, MTS viability assay of HPB-ALL leukemia cells [8]: 1.85 nM

Firefly/Renilla Luminescence, human Notch1 reporter cells + 5 mM EDTA, 0.01 µg/mL antibody (Firefly/Renilla ratio) [6]: 267
Firefly/Renilla Luminescence, human Notch1 reporter cells + 5 mM EDTA, 0.1 µg/mL antibody (Firefly/Renilla ratio) [6]: 299
Firefly/Renilla Luminescence, human Notch1 reporter cells + 5 mM EDTA, 1 µg/mL antibody (Firefly/Renilla ratio) [6]: 278
Firefly/Renilla Luminescence, human Notch1 reporter cells + 5 mM EDTA, 10 µg/mL antibody (Firefly/Renilla ratio) [6]: 257
Firefly/Renilla Luminescence, human Notch1 reporter cells + 5 mM EDTA, 30 µg/mL antibody (Firefly/Renilla ratio) [6]: 229
Substance: control anti-E. tenella antibody
